We go through one molecule from publication PMC4022731 (PLoS Pathogens, 2014).

The target in the experiment is Flag-tagged HCMV gp68 expressed by recombinant vaccinia virus (human cytomegalovirus, UniProt P16739). Kind of experiment: co-IP. Particulars: one partner purified.
Sequence of Flag-tagged HCMV gp68 expressed by recombinant vaccinia virus (P16739 24-345): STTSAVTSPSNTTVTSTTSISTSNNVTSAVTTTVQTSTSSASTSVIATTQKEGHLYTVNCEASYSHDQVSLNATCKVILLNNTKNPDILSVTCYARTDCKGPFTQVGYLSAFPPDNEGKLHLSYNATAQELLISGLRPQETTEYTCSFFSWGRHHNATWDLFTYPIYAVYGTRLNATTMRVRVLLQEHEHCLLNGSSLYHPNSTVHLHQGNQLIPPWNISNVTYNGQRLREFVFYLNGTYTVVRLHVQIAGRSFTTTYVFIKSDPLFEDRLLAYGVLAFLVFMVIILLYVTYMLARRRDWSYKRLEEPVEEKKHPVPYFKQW

B1: palivizumab (antibody, V domains shown)
VH: QVTLRESGPALVKPTQTLTLTCTFSGFSLSTSGMSVGWIRQPPGKALEWLADIWWDDKKDYNPSLKSRLTISKDTSKNQVVLKVTNMDPADTATYYCARSMITNWYFDVWGAGTTVTVSS
VL: DIQMTQSPSTLSASVGDRVTITCKCQLSVGYMHWYQQKPGKAPKLLIYDTSKLASGVPSRFSGSGSGTEFTLTISSLQPDDFATYYCFQGSGYPFTFGGGTKLEIK
notes: also called IgG1 isotype control antibody; source: bought: MedImmune
B1: the binding result was “binds”.
